In publication PMC11582362:

Test system: chimeric ADAR1-dsRBD3/Xlrbpa-dsRBD2 (Homo sapiens / Xenopus laevis?)
Assay: ITC
Conditions: N = 3.05 ± 0.31; ITC: 25 mM Na-phosphate pH 7.0, 100 mM NaCl, 2 mM 2-mercaptoethanol, 25 °C; 2.25 uM dsRNA in cell, 80 uM protein in syringe

“GGGAUCAAUAUGCUAAGCGAUCCC / GGGAUCGCUUAGCAUAUUGAUCCC [24 bp dsRNA duplex]” showed a Kd of 500 nM.
